From publication doi:10.1101/2020.01.21.912428

Experiments:
[1] = target: dTBCE-GFP expressed in Drosophila embryos (Drosophila melanogaster) (UniProt A1Z6J5); test: fluorescence microscopy of beads
[2] = target: dTBCE^mutCG-GFP expressed in Drosophila embryos (Drosophila melanogaster) (UniProt A1Z6J5); test: fluorescence microscopy of beads

mean fluorescence intensity in the tubulin-rhodamine channel [1]: 25.9 a.u.
mean fluorescence intensity in the tubulin-rhodamine channel [2]: 4.7 a.u.
Substance: bovine brain tubulin supplemented with 25 % of tubulin-rhodamin (from UniProt Q6B856 1-445) (complex)
